Like-named read-outs stand apart in the source and are kept apart here.
Tests used:
[1] = biological target: T1, ComAC (ComA C-terminal DNA-binding domain) (Bacillus subtilis, UniProt P14204 146-214); experiment: SPR
T1 sequence: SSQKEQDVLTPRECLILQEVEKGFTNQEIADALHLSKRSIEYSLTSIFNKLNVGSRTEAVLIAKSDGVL

SEC = biological target: the molecule itself; experiment: SEC
[2] = biological target: T1, ComAC (ComA C-terminal DNA-binding …); experiment: SPR; remark: listed apart in the source

Binder | Kd [1] | stoichiometry N (SEC) | other results
Wild type srfA (dsDNA) DNA 1: TTTCGGCATCCCGCATGAAACTTTTCAC DNA 2: GTGAAAAGTTTCATGCGGGATGCCGAAA | 9.59 nM | – | –
Consensus RE3 (dsDNA) DNA 1: TTTCGGCATCCCGCATGAAACTTTGCGG DNA 2: CCGCAAAGTTTCATGCGGGATGCCGAAA | 4.94 nM | – | –
Full-length competence protein A (ComAFL) (natural protein, Bacillus subtilis, UniProt P14204 1-214, looked up) MKKILVIDDHPAVMEGTKTILETDSNLSVDCLSPEPSEQFIKQHDFSSYDLILMDLNLGGEVNGMELSKQILQENPHCKIIVYTGYEVEDYFEEAIRAGLHGAISKTESKEKITQYIYHVLNGEILVDFAYFKQLMTQQKTKPAPSSQKEQDVLTPRECLILQEVEKGFTNQEIADALHLSKRSIEYSLTSIFNKLNVGSRTEAVLIAKSDGVL | – | 2 | –
N-terminal domain of competence protein A (ComAN, residues 1-126) (domain or fragment, Bacillus subtilis, UniProt P14204 1-126, looked up) MKKILVIDDHPAVMEGTKTILETDSNLSVDCLSPEPSEQFIKQHDFSSYDLILMDLNLGGEVNGMELSKQILQENPHCKIIVYTGYEVEDYFEEAIRAGLHGAISKTESKEKITQYIYHVLNGEIL | – | 2 | –
N-terminal domain of competence protein A with asparagine at position 55 (ComAN-D55N, residues 1-126) (domain or fragment, Bacillus subtilis, UniProt P14204 1-126, looked up) MKKILVIDDHPAVMEGTKTILETDSNLSVDCLSPEPSEQFIKQHDFSSYDLILMNLNLGGEVNGMELSKQILQENPHCKIIVYTGYEVEDYFEEAIRAGLHGAISKTESKEKITQYIYHVLNGEIL | – | 2 | –
Consensus RE1-RE3 (dsDNA) DNA 1: TTGCGGCATCCCGCAAGAAACTTTGCGG DNA 2: CCGCAAAGTTTCTTGCGGGATGCCGCAA | – | – | Kd [2]: 11.3 nM
